Assay results from patent US20180044391A1 (DEUTSCHES KREBSFORSCHUNGSZENTRUM, published 2018).

Target: T1, CD19 (UniProt P15391 20-556, limits assumed)
T1 sequence (looked up): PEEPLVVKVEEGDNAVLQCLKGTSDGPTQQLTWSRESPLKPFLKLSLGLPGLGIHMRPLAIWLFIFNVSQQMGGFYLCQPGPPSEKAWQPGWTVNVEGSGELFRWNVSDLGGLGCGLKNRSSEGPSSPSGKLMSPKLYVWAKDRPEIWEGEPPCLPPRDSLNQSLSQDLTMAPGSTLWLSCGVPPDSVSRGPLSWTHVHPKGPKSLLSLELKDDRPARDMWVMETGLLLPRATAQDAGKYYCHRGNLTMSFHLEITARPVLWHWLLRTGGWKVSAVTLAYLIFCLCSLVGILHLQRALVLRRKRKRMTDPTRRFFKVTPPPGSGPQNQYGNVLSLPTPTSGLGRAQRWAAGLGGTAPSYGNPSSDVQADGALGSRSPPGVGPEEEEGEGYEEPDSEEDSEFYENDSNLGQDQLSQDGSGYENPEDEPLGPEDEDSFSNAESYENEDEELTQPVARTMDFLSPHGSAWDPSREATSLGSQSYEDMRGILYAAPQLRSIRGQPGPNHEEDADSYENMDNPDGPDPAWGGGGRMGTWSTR
Test: cell-based or functional assay

B1: αCD19-SDIE (antibody, human IgG1, V domains shown)
VH: EVQLQQSGPELIKPGASVKMSCKASGYTFTSYVMHWVKQKPGQGLEWIGYINPYNDGTKYNEKFKGKATLTSDKSSSTAYMELSSLTSEDSAVYYCARGTYYYGSRVFDYWGQGTTLTVSS
VL: DIVMTQAAPSIPVTPGESVSISCRSSKSLLNSNGNTYLYWFLQRPGQSPQLLIYRMSNLASGVPDRFSGSGSGTAFTLRISRVEAEDVGVYYCMQHLEYPFTFGAGTKLELK
  inhibition of proliferation of NALM16 cells with PBMC (3H-thymidine uptake, 2 days): ~60%
